The test addresses NyxB (His tag cleaved, for crystallisation, SEC-MALS and SAXS) (Brucella abortus 2308) (UniProt Q2YPZ9). Nature of the test: SEC-MALS.

One may read the stoichiometry N as a count of units in the complex or per binding partner.

For the substance “NyxB (His tag cleaved, for crystallisation, SEC-MALS and SAXS) (from UniProt Q2YPZ9 1-134) (natural protein)”, the stoichiometry N came out at 2.

The values above are taken from article PMC9823007.
